From publication PMC10438392 (Proceedings of the National Academy of Sciences of the …, 2023) come the findings set out here.

Test [1] has as its target T1, PurTCp (PurT of Colwellia psychrerythraea) (Colwellia psychrerythraea, UniProt Q484N1).
T1 sequence (Q484N1 1-482): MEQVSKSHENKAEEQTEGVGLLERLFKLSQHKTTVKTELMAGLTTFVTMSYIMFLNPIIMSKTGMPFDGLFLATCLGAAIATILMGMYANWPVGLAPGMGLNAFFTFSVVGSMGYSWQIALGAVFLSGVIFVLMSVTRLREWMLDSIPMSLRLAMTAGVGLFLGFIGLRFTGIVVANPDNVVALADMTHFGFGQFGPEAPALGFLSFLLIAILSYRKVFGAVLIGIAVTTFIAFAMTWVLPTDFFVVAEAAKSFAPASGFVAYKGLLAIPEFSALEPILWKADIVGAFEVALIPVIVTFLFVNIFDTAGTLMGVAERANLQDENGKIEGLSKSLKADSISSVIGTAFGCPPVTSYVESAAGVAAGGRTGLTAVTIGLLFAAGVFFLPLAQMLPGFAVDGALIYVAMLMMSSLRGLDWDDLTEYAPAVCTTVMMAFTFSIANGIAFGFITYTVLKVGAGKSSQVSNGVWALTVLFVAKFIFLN
As to the kind of experiment: SPA competition with 3H-xanthine or 3H-guanine. Type of test: binding. The conditions noted are these: 0.5 µM 3H-xanthine or 3H-guanine; pH 8.0.

For test [2], the target named is PurT of Colwellia psychrerythraea (PurTCp) (Colwellia psychrerythraea 34H). As to the kind of experiment: SEC.
Test [3] shares this target. Nature of the test: cross-linking.

Regarding `c1ncc2[nH]cnc2n1` [purine], the “% inhibition at 250 μM” value in test [1] is 2-amino-6-bromopurine, 6-bromopurine, 6-thioguanine, allopurinol, isoguanine, and purine.

A word on the stoichiometry N: it is the number of molecules, sites or subunits per partner or assembly. Regarding “PurT of Colwellia psychrerythraea (PurTCp) (natural protein)”, the stoichiometry N in test [2] and in test [3] was 2 in each case.
